Reference: PMC6098130

Target: IgM-BCR (Ighm) (mouse (endogenous in primary B cells))

- median diffusion coefficient of IgM in galectin-9-high regions (against 0.028 μm^2/s in galectin-9-low regions), single-particle tracking on Gal9-KO B cells treated with fluorescently labeled rGal9: 0.012 μm^2/s
Substance: recombinant mouse galectin-9 (rGal9, E. coli-derived, R&D Systems) (from UniProt O08573 1-353) (natural protein)
